According to publication PMC12102759:

B1: NCOA2 peptide 1075-1090 (Nuclear receptor coactivator 2), 16-mer library wild type / NSP3 UBl1 (ORF1ab Nsp3a Ub1, residues 819-925) (parent)
chain 1: DEGALLDQLYLALRNF
chain 2: APTKVTFGDDTVIEVQGYKSVNITFELDERIDKVLNEKCSAYTVELGTEVNEFACVVADAVIKTLQPVSELLTPLGIDLDEWSMATYYLFDESGEFKLASHMYCSFY
B2: NEK9 peptide 738-753 (Serine/threonine-protein kinase Nek9), 16-mer library wild type / NSP9 (ORF1ab Nsp9, residues 4141-4253) (parent)
chain 1: SGLSIGTVFQSSSPGG
chain 2: NNELSPVALRQMSCAAGTTQTACTDDNALAYYNTTKGGRFVLALLSDLQDLKWARFPKSDGTGTIYTELEPPCRFVTDTPKGPKVKYLYFIKGLNNLNRGMVLGSLAATVRLQ
B3: MBOAT1 peptide 17-32 (Lysophospholipid acyltransferase 1), 16-mer library wild type / NSP3 ADRP (ORF1ab Nsp3b ADRP, residues 1023-1192) (parent)
chain 1: STYLHPLSELLGIPLD
chain 2: not shown

Variants of: B1
Settings: with NSP3 UBl1 (ORF1ab Nsp3a Ub1, residues 819-925); bait immobilised on MaxiSorp plates (10 µg), library pre-cleared on GST, 2 h binding at 4 °C, five washes; one round per day, days 1-4; value from days 2 and 3; keep out of graded; scale: average fractional NGS count over selection days 2 and 3

Variant | screen value
chain 1 DEGALLDQLYLALFNF [chain 1 R14F] | 2.17e-05
chain 1 DEGALLDQLYLALYNF [chain 1 R14Y] | 5.46e-06
chain 1 DEGALLDQLYLALNNF [chain 1 R14N] | 2.08e-05
chain 1 DEGALLDQLYQALRNF [chain 1 L11Q] | 0
chain 1 DEGALLDQLYSALRNF [chain 1 L11S] | 0.000175
chain 1 DEGALLDQLYMALRNF [chain 1 L11M] | 0
chain 1 DEGALLDQLYFALRNF [chain 1 L11F] | 0
chain 1 DEGALLDPLYLALRNF [chain 1 Q8P] | 1.57e-05
chain 1 DEGALLDGLYLALRNF [chain 1 Q8G] | 8.24e-06

Variants of: B2
Settings: with NSP9 (ORF1ab Nsp9, residues 4141-4253); bait immobilised on MaxiSorp plates (10 µg), library pre-cleared on GST, 2 h binding at 4 °C, five washes; one round per day, days 1-4; value from days 2 and 3; keep out of graded; scale: average fractional NGS count over selection days 2 and 3

Variant | screen value
chain 1 SGLKIGTVFQSSSPGG [chain 1 S4K] | 0
chain 1 SGLDIGTVFQSSSPGG [chain 1 S4D] | 0
chain 1 SGLYIGTVFQSSSPGG [chain 1 S4Y] | 0
chain 1 SGLPIGTVFQSSSPGG [chain 1 S4P] | 0
chain 1 SGLWIGTVFQSSSPGG [chain 1 S4W] | 0
chain 1 EGLSIGTVFQSSSPGG [chain 1 S1E] | 2.09e-05
chain 1 DGLSIGTVFQSSSPGG [chain 1 S1D] | 0.000541
chain 1 MGLSIGTVFQSSSPGG [chain 1 S1M] | 1.76e-05
chain 1 HGLSIGTVFQSSSPGG [chain 1 S1H] | 0
chain 1 LGLSIGTVFQSSSPGG [chain 1 S1L] | 0
chain 1 NGLSIGTVFQSSSPGG [chain 1 S1N] | 0.000364
chain 1 YGLSIGTVFQSSSPGG [chain 1 S1Y] | 0
chain 1 SGLSIGTVFQNSSPGG [chain 1 S11N] | 0
chain 1 SGLSIGTVFQTSSPGG [chain 1 S11T] | 0
chain 1 SGLSIGTVFQDSSPGG [chain 1 S11D] | 2.69e-05
chain 1 SGLSIGTVFQASSPGG [chain 1 S11A] | 0
chain 1 SLLSIGTVFQSSSPGG [chain 1 G2L] | 0
chain 1 SILSIGTVFQSSSPGG [chain 1 G2I] | 0
chain 1 SVLSIGTVFQSSSPGG [chain 1 G2V] | 0
chain 1 SGLSIGTVFQSSSEGG [chain 1 P14E] | 2.37e-05

Variant | screen value
chain 1 SGLSIGTVFQSSSTGG [chain 1 P14T] | 0
chain 1 SGLSIGTVFQSSSRGG [chain 1 P14R] | 0
chain 1 SGLSIGTEFQSSSPGG [chain 1 V8E] | 2.09e-05
chain 1 SGLSIGTAFQSSSPGG [chain 1 V8A] | 3.17e-05
chain 1 SGLSIGTKFQSSSPGG [chain 1 V8K] | 0
chain 1 SGLSIGTQFQSSSPGG [chain 1 V8Q] | 0.000101
chain 1 SGLSIGTGFQSSSPGG [chain 1 V8G] | 0
chain 1 SGLSIGTDFQSSSPGG [chain 1 V8D] | 0.000118
chain 1 SGLSIGTPFQSSSPGG [chain 1 V8P] | 0
chain 1 SGLSIGTHFQSSSPGG [chain 1 V8H] | 0.000119
chain 1 SGLSIGTVFQSSQPGG [chain 1 S13Q] | 0
chain 1 SGLSIGTVFQSSVPGG [chain 1 S13V] | 0
chain 1 SGLSIGTVFQSSNPGG [chain 1 S13N] | 2.85e-05
chain 1 SGLSIGTVFQSSGPGG [chain 1 S13G] | 0
chain 1 SGLSIGTVNQSSSPGG [chain 1 F9N] | 9.97e-05
chain 1 SGLSIGTVTQSSSPGG [chain 1 F9T] | 0
chain 1 SGLSIGTVVQSSSPGG [chain 1 F9V] | 0.000209
chain 1 SGLSIGTVEQSSSPGG [chain 1 F9E] | 0.000224
chain 1 SGLSIGTVKQSSSPGG [chain 1 F9K] | 0
chain 1 SGLSIGEVFQSSSPGG [chain 1 T7E] | 0.000776

Variant | screen value
chain 1 SGLSIGDVFQSSSPGG [chain 1 T7D] | 0
chain 1 SGLSIGPVFQSSSPGG [chain 1 T7P] | 0.000499
chain 1 SGLSIGQVFQSSSPGG [chain 1 T7Q] | 0
chain 1 SGLSIGSVFQSSSPGG [chain 1 T7S] | 0
chain 1 SGLSIGTVFESSSPGG [chain 1 Q10E] | 0.000217
chain 1 SGLSIGTVFISSSPGG [chain 1 Q10I] | 0
chain 1 SGLSEGTVFQSSSPGG [chain 1 I5E] | 0
chain 1 SGLSIGTVFQSSSPEG [chain 1 G15E] | 0
chain 1 SGLSIGTVFQSSSPVG [chain 1 G15V] | 0.000116
chain 1 SGLSIGTVFQSSSPSG [chain 1 G15S] | 0
chain 1 SGLSIGTVFQSSSPWG [chain 1 G15W] | 0
chain 1 SGLSIGTVFQSSSPAG [chain 1 G15A] | 0
chain 1 SGLSIGTVFQSSSPQG [chain 1 G15Q] | 4.92e-05
chain 1 SGLSIGTVFQSSSPDG [chain 1 G15D] | 0
chain 1 SGWSIGTVFQSSSPGG [chain 1 L3W] | 0
chain 1 SGVSIGTVFQSSSPGG [chain 1 L3V] | 0.000196
chain 1 SGLSIGTVFQSISPGG [chain 1 S12I] | 0
chain 1 SGLSIGTVFQSDSPGG [chain 1 S12D] | 0
chain 1 SGLSIGTVFQSESPGG [chain 1 S12E] | 0

Variants of: B3
Settings: with NSP3 ADRP (ORF1ab Nsp3b ADRP, residues 1023-1192); bait immobilised on MaxiSorp plates (10 µg), library pre-cleared on GST, 2 h binding at 4 °C, five washes; one round per day, days 1-4; value from days 2 and 3; keep out of graded; scale: average fractional NGS count over selection days 2 and 3

Variant | screen value
chain 1 S1T | 9.2e-05
chain 1 S1V | 0.000869
chain 1 S1R | 0
chain 1 S1Y | 0.00667
chain 1 S1W | 0.000263
chain 1 T2A | 0.000138
chain 1 T2E | 1.15e-05
chain 1 T2Q | 4.36e-05
chain 1 T2F | 0.00217
chain 1 T2I | 2.27e-05
chain 1 T2W | 2.61e-05
chain 1 T2K | 0
chain 1 T2V | 0.000388
chain 1 T2Y | 0.00544
chain 1 T2L | 0.000208
chain 1 T2S | 5.82e-05
chain 1 T2R | 0

Variant | screen value
chain 1 T2H | 0.000152
chain 1 S8G | 0
chain 1 S8N | 0
chain 1 Y3D | 0.000184
chain 1 Y3T | 3.8e-05
chain 1 Y3A | 0.00112
chain 1 Y3W | 0
chain 1 Y3E | 2.37e-05
chain 1 Y3I | 0
chain 1 Y3G | 0.000695
chain 1 Y3F | 0
chain 1 Y3N | 3.37e-05
chain 1 Y3S | 2.54e-05
chain 1 Y3M | 0.000117
chain 1 Y3H | 3.26e-05
chain 1 Y3L | 0
